{"source": "paper doi:10.1101/2022.06.14.496074", "about": "(bioRxiv, 2022)", "binders": {"B1": {"name": "AcrA (natural protein)", "chain": "DDKQAQQGGQQMPAVGVVTVKTEPLQITTELPGRTSAYRIAEVRPQVSGIILKRNFKEGSDIEAGVSLYQIDPATYQATYDSAKGDLAKAQAAANIAQLTVNRYQKLLGTQYISKQEYDQALADAQQANAAVTAAKAAVETARINLAYTKVTSPISGRIGKSNVTEGALVQNGQATALATVQQLDPIYVDVTQSSNDFLRLKQELANGTLKQENGKAKVSLITSDGIKFPQDGTLEFSDVTVDQTTGSITLRAIFPNPDHTLLPGMFVRARLEEGLNPNAILVPQQGVTRTPRGDATVLVVGADDKVETRPIVASQAIGDKWLVTEGLKAGDRVVISGLQKVRPGVQVKAQEVTADNNQQAASGAQPEQSKS"}}, "key": {"TolC": {"biological_target": "T1, TolC (E. coli, UniProt P02930 23-493)", "T1 sequence": "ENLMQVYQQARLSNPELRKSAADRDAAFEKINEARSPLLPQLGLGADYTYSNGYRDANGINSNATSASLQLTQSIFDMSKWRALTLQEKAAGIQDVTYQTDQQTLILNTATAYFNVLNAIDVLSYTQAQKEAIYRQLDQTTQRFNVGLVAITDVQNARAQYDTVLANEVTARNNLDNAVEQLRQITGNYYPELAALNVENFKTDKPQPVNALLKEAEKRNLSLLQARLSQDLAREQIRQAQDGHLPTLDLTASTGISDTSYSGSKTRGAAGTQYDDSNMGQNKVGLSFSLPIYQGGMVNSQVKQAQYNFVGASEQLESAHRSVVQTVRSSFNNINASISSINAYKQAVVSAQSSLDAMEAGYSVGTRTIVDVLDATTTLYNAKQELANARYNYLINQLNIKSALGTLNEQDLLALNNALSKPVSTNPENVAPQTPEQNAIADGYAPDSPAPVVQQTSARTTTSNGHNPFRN", "assay": "single-channel electrophysiology"}, "[1]": {"biological_target": "T2, AcrA (E. coli (K12 derived strain)), P0AE06", "T2 chain": "B1 chain", "assay": "SEC", "conditions": "remark: other sources report otherwise"}}}
{"binder": "B1", "values": [{"measurement": "binding result", "setting": "TolC", "result": "binds"}, {"measurement": "stoichiometry N", "setting": "[1]", "result": 2}]}
